Consider three molecules from US5804604, “Tat-derived transport polypeptides and fusion proteins” (Biogen, Inc., dated 1998).

Where a chain is given by its changes, count along the chain named.

The assay deals with full-length HPV-16 E2 protein (E2 transactivator expressed from plasmid pAHE2) (human papillomavirus strain 16 (HPV-16), UniProt P03120). Description: cell-based or functional assay.

B1: TxHE2CCSS (tat37-72 chemically cross-linked to E2.123CCSS) (other)
chain: MVPDTGNPCHTTKLLHRDSVDSAPILTAFNSSHKGRINCNSNTTPIVHLKGDANTLKSLRYRFKKHSTLYTAVSSTWHWTGHNVKHKSAIVTLTYDSEWQRDQFLSQVKIPKTITVSTGFMSI
peptide: CFITKALGISYGRKKRRQRRRPPQGSQTHQVSLSKQ
modifications: cysteine cross-linked through bismaleimidohexane (BMH) to tat37-72; 1 transport molecule per E2 repressor homodimer; cysteine coupled to bismaleimidohexane (BMH)
For the molecule B1, the “% repression (E2 repression assay, COS7 cells, without chloroquine)” value is 69.4 % repression.

B2: HE2.123 (unconjugated E2.123 repressor protein) (other)
chain: B1 chain with S58C, S67C
Turning to B2, the “% repression (E2 repression assay, COS7 cells, without chloroquine)” value was found to be 0.3 % repression.

B3: JB106 (other)
chain: MYGRKKRRQRRRPPDTGNPCHTTKLLHRDSVDSAPILTAFNSSHKGRINCNSNTTPIVHLKGDANTLKCLRYRFKKHCTLYTAVSSTWHWTGHNVKHKSAIVTLTYDSEWQRDQFLSQVKIPKTITVSTGFMSI
For the molecule B3, the “% repression (E2 repression assay, COS7 cells, without chloroquine)” value stood at 94.3 % repression.
